Article PMC5609902 (Oncotarget, 2017)

Experiments:
[1] = molecular target: T1, JRFL rgp120 (HIV-1 JRFL (clade B), UniProt Q75760, strain); test: cell-based or functional assay
[2] = molecular target: Env glycoprotein (gp160) of HIV-1 NL4-3, wild type (HIV-1 NL4-3 (clade B), UniProt Q6BC06, strain); test: cell-based or functional assay
[3] = molecular target: T2, rgp120 (R2) (HIV-1 R2); test: ELISA; direct ELISA; 1 μg/ml rgp120 or rgp140 coated in 0.1 M carbonate buffer pH 9.6, 4°C overnight; antibody 1 h at 37°C; detected with HRP goat anti-human IgG; settings: both partners purified
T2 construct: gp120, the surface subunit of the Env glycoprotein, HIV-1 isolate R2; recombinant; also called native rgp120; coated rgp120; source: bought: Immune Technology Corp or Enzyme LLC

[4] = molecular target: T3, CN54 rgp120 (HIV-1 isolate CN54 (97CN54), CRF07_BC, UniProt Q994N8, strain); test: SPR; BIACORE T200; rgp120 immobilised on CM5 chip by amine coupling (20 μg/ml); antibody in two-fold dilutions injected at 30 μl/min for 3 min; 1:1 Langmuir model, global fit; settings: both partners purified
T3 construct: gp120, the surface subunit of the Env glycoprotein, HIV-1 isolate CN54 (CRF07_BC); recombinant; also called CRF07_BC (CN54)-derived rgp120; CN54 gp120; source: bought: Immune Technology Corp or Enzyme LLC

[5] = molecular target: T1, JRFL rgp120; test: as above; settings: both partners purified

B1: Y498 IgG1 (antibody, V domains shown)
VH: KVQLVQSGTELKKPGASGKVSCKASGYTFNSNGLNWVRQAPGQGLEWVGWISGHSDETKHAQNFQGRLTLTTDTSTNTAYMELRSLRSDDTAVYYCARSLLRSLERLMGGTDAFDIWGQGTLVTVSS
VL: not shown
notes: as the VH of m1; as the VL of m1; Full-length IgG1, kappa light chain, made by recloning the Fab chains in the pDR12 vector; also called whole Y498 IgG1; source: 293T, transient transfection, purified from the culture medium (protein A/G sepharose)
[1]
  neutralisation of the pseudovirus with JRFL Env (Env on the virus, not the rgp120), single cycle infection of TZM-bl cells, IC50: > 50 µg/mL
[2]
  neutralisation of the pseudovirus with NL4-3 Env, single cycle infection of TZM-bl cells, IC50: 0.61 µg/mL
[3]
  binding result: binds
[4]
  Kd: 0.46 nM
[5]
  Kd: 0.86 nM
